# T1: SMC1 (human, UniProt Q14683 1-1233)
# T1 sequence: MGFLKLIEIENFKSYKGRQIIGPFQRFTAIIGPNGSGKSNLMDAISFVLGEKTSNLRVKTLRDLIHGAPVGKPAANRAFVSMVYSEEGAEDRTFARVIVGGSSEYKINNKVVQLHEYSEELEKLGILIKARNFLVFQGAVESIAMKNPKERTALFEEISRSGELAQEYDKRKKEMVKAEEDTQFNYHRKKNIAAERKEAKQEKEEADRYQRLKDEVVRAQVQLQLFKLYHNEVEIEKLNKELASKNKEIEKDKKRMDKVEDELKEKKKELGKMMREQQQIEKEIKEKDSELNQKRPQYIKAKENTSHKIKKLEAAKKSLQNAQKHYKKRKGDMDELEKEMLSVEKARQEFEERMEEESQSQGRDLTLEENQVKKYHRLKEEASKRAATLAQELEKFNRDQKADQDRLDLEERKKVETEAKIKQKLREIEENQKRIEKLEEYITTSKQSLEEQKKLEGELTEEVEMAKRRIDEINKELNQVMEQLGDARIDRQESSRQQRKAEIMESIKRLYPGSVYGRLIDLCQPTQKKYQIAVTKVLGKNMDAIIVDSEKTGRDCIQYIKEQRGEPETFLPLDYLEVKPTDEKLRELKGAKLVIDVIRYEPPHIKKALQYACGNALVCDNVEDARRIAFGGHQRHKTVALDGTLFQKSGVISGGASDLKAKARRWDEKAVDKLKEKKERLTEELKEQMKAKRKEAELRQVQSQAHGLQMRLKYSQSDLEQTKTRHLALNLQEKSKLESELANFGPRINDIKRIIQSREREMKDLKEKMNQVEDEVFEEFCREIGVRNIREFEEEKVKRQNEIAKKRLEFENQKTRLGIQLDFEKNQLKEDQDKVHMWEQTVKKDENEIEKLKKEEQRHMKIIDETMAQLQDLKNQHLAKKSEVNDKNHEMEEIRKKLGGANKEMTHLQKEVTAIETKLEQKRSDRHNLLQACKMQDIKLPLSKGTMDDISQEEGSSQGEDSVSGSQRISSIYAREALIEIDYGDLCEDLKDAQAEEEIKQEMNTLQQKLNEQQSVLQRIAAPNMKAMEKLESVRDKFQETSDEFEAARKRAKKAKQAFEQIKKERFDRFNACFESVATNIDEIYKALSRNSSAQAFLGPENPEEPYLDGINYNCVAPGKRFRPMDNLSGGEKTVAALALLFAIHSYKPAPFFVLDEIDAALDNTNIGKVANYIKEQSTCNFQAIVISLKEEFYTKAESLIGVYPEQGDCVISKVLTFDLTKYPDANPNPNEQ
# B1: SMC3 with a C-terminal Flag tag (natural protein)
# chain: MYIKQVIIQGFRSYRDQTIVDPFSSKHNVIVGRNGSGKSNFFYAIQFVLSDEFSHLRPEQRLALLHEGTGPRVISAFVEIIFDNSDNRLPIDKEEVSLRRVIGAKKDQYFLDKKMVTKNDVMNLLESAGFSRSNPYYIVKQGKINQMATAPDSQRLKLLREVAGTRVYDERKEESISLMKETEGKREKINELLKYIEERLHTLEEEKEELAQYQKWDKMRRALEYTIYNQELNETRAKLDELSAKRETSGEKSRQLRDAQQDARDKMEDIERQVRELKTKISAMKEEKEQLSAERQEQIKQRTKLELKAKDLQDELAGNSEQRKRLLKERQKLLEKIEEKQKELAETEPKFNSVKEKEERGIARLAQATQERTDLYAKQGRGSQFTSKEERDKWIKKELKSLDQAINDKKRQIAAIHKDLEDTEANKEKNLEQYNKLDQDLNEVKARVEELDRKYYEVKNKKDELQSERNYLWREENAEQQALAAKREDLEKKQQLLRAATGKAILNGIDSINKVLDHFRRKGINQHVQNGYHGIVMNNFECEPAFYTCVEVTAGNRLFYHIVDSDEVSTKILMEFNKMNLPGEVTFLPLNKLDVRDTAYPETNDAIPMISKLRYNPRFDKAFKHVFGKTLICRSMEVSTQLARAFTMDCITLEGDQVSHRGALTGGYYDTRKSRLELQKDVRKAEEELGELEAKLNENLRRNIERINNEIDQLMNQMQQIETQQRKFKASRDSILSEMKMLKEKRQQSEKTFMPKQRSLQSLEASLHAMESTRESLKAELGTDLLSQLSLEDQKRVDALNDEIRQLQQENRQLLNERIKLEGIITRVETYLNENLRKRLDQVEQELNELRETEGGTVLTATTSELEAINKRVKDTMARSEDLDNSIDKTEAGIKELQKSMERWKNMEKEHMDAINHDTKELEKMTNRQGMLLKKKEECMKKIRELGSLPQEAFEKYQTLSLKQLFRKLEQCNTELKKYSHVNKKALDQFVNFSEQKEKLIKRQEELDRGYKSIMELMNVLELRKYEAIQLTFKQVSKNFSEVFQKLVPGGKATLVMKKGDVEGSQSQDEGEGSGESERGSGSQSSVPSVDQFTGVGIRVSFTGKQGEMREMQQLSGGQKSLVALALIFAIQKCDPAPFYLFDEIDQALDAQHRKAVSDMIMELAVHAQFITTTFRPELLESADKFYGVKFRNKVSHIDVITAEMAKDFVEDDTTHG
# Molecular target: T1, SMC1
# Experiment: mass photometry
binder,measurement,value
B1,binding result,binds

# Source: article PMC8563363 (Cell, 2021)
